Experimental data: article PMC4027183
Where two headings read alike, the source gives them in different places.

How the values were obtained:
Experiment in all cases: ITC
TIA-1 RRM1,2,3 = target: T1, TIA-1 RRM1,2,3 (Homo sapiens, UniProt P31483-2 1-274)
T1 sequence: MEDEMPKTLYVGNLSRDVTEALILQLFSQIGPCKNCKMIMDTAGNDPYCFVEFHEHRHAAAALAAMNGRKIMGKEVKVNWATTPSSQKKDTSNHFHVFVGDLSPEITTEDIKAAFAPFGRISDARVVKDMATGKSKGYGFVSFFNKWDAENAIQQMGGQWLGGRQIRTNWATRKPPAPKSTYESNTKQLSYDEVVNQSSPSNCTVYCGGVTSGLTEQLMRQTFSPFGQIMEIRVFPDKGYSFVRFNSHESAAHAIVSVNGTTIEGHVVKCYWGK

TIA-1 RRM2,3 [1] = target: T2, TIA-1 RRM2,3 (Homo sapiens, UniProt P31483-2 93-274)
T2 sequence: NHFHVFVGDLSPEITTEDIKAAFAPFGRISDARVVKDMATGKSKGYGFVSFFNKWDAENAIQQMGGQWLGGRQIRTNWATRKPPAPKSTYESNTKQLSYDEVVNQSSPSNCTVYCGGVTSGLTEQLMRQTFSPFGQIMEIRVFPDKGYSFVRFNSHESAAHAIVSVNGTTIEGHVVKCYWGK

TIA-1 RRM2,3 [2] = target: T2, TIA-1 RRM2,3; remark: listed apart in the source
TIA-1 RRM2,3 [3] = target: T2, TIA-1 RRM2,3; remark: listed apart in the source

B1: U15 (ssRNA)
RNA: UUUUUUUUUUUUUUU
TIA-1 RRM1,2,3
  Kd: 16.9 ± 2.7 nM

B2: fas_10 (ssRNA)
RNA: UUCUCCUUUC
TIA-1 RRM2,3 [1]
  Kd: 35.6 ± 8.1 nM

B3: U9 (ssRNA)
RNA: UUUUUUUUU
TIA-1 RRM2,3 [2]
  Kd: 7 ± 0.2 nM
TIA-1 RRM2,3 [3]
  Kd: 5.6 ± 1.9 nM
